From PMC3295232 (Journal of the American Chemical Society, 2012)
Positions count from the first letter of the chain named. Names and notes keep the numbering of the source. Where two headings read alike, the source gives them in different places. Marks after values point to notes of the source that are not given here.

B1: E51D: variant at the indicated position of YPDC (protein, UniProt P06169 2-563, looked up, variant E51D)
Pyruvate decarboxylase …: SEITLGKYLFERLKQVNVNTVFGLPGDFNLSLLDKIYEVEGMRWAGNANDLNAAYAADGYARIKGMSCIITTFGVGELSALNGIAGSYAEHVGVLHVVGVPSISAQAKQLLLHHTLGNGDFTVFHRMSANISETTAMITDIATAPAEIDRCIRTTYVTQRPVYLGLPANLVDLNVPAKLLQTPIDMSLKPNDAESEKEVIDTILALVKDAKNPVILADACCSRHDVKAETKKLIDLTQFPAFVTPMGKGSIDEQHPRYGGVYVGTLSKPEVKEAVESADLILSVGALLSDFNTGSFSYSYKTKNIVEFHSDHMKIRNATFPGVQMKFVLQKLLTTIADAAKGYKPVAVPARTPANAAVPASTPLKQEWMWNQLGNFLQEGDVVIAETGTSAFGINQTTFPNNTYGISQVLWGSIGFTTGATLGAAFAAEEIDPKKRVILFIGDGSLQLTVQEISTMIRWGLKPYLFVLNNDGYTIEKLIHGPKAQYNEIQGWDHLSLLPTFGAKDYETHRVATTGEWDKLTQDKSFNDNSKIRMIEIMLPVFDAPQNLVEQAKLTAATNAKQ
B2: E51N: variant at the indicated position of YPDC (protein, UniProt P06169 2-563, looked up, variant E51N)
Pyruvate decarboxylase …: B1 Pyruvate decarboxylase … with D50N
B3: E51Q: variant at the indicated position of YPDC (protein, UniProt P06169 2-563, looked up, variant E51Q)
Pyruvate decarboxylase …: B1 Pyruvate decarboxylase … with D50Q
B4: C221E/C222A: double-mutant of YPDC with a substitution at the neighboring Cys222; permanently activated form (protein, UniProt P06169 2-563, looked up, variant C221E C222A)
Pyruvate decarboxylase …: B1 Pyruvate decarboxylase … with D50E, C220E, C221A
B5: E51A: variant at the indicated position of YPDC (protein, UniProt P06169 2-563, looked up, variant E51A)
Pyruvate decarboxylase …: B1 Pyruvate decarboxylase … with D50A
B6: YPDC: wild type yeast pyruvate decarboxylase (EC 4.1.1.1) isolated from Saccharomyces cerevisiae (protein, UniProt P06169 2-563, looked up)
Pyruvate decarboxylase …: B1 Pyruvate decarboxylase … with D50E
B7: D28A: variant at the indicated position of YPDC (protein, UniProt P06169 2-563, looked up, variant D28A)
Pyruvate decarboxylase …: B1 Pyruvate decarboxylase … with D27A, D50E
B8: E91D: variant at the indicated position of YPDC (protein, UniProt P06169 2-563, looked up, variant E91D)
Pyruvate decarboxylase …: B1 Pyruvate decarboxylase … with D50E, E90D
B9: E477Q: variant at the indicated position of YPDC (protein, UniProt P06169 2-563, looked up, variant E477Q)
Pyruvate decarboxylase …: B1 Pyruvate decarboxylase … with D50E, E476Q

Assays:
[1] = system: yeast pyruvate decarboxylase (YPDC); assay: YPDC assay coupled to alcohol dehydrogenase/NADH; type: biochemical, Saccharomyces cerevisiae; conditions: pyruvate as substrate; for kcat / subunit: per subunit; for kcat / subunit / S0.5: pH 6.0, 30 °C
[2] = system: yeast pyruvate decarboxylase (YPDC); conditions: cited from earlier work; for S0.5: pyruvate as substrate
[3] = system: yeast pyruvate decarboxylase (YPDC); type: biochemical, Saccharomyces cerevisiae; conditions: 40 mM pyruvate in syringe, 10 °C, pH 6.0
[4] = system: yeast pyruvate decarboxylase (YPDC); conditions: reaction with pyruvate; cited from earlier work

| Molecule | kcat / subunit [1] [s⁻¹] | decrease in kcat as compared to YPDC [1] | S0.5 [1] [mM] | reduction in activity compared to YPDC [2] | S0.5 [2] | rate constant of accumulation of IP tautomer (LThDP), CD signal at 313 nm [3] [s⁻¹] | k′2 (net forward rate constant of LThDP formation) [4] [s⁻¹] |
| --- | --- | --- | --- | --- | --- | --- | --- |
| B1 | 0.049 | 1000 fold | 23.1 ± 1.3 | – | – | – | – |
| B2 | 0.0024 | 10,000 fold | 31.5 ± 12 | – | – | – | – |
| B3 | 0.035 | – | 14.9 ± 1.3 | – | – | – | – |
| B4 | 18.2 | – | – | 2–5 fold | 1.47 ± 0.04 ^d mM | – | – |
| B5 | 0.0043 | 10,000 fold | 0.72 ± 0.1 | – | – | – | – |
| B6 | 60 | – | 1.1 ± 0.2 | – | – | 312 | 294 ± 20 |
| B7 | 0.066 | – | – | – | 1.66 ± 0.25 ^b mM | – | – |
| B8 | 11 | – | – | – | 1.79 ± 0.22 ^c mM | – | – |
| B9 | 0.086 | – | – | – | 3.02 ± 0.22 ^b mM | – | – |
